± gives the standard deviation of the averaged measurements.
The sequences below were run on Saccharomyces cerevisiae (assay: protein stability index of tFT-peptide fusion (C-terminal peptide) (PSI (0-1 scale)); higher = more stable (slower turnover)). Conditions: genetic background: wild type; temperature: 30 C.
Experimental: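 Multiplexed protein stability (MPS) profiling in S. cerevisiae. Random 12-aa peptides (tFT-X12 library) are fused to the C-terminus of a sfGFP-mCherry tandem fluorescent timer, after mCherry and a GGGS linker. Cells are FACS-sorted into 8 mCherry/sfGFP bins and deep-sequenced. The protein stability index (PSI) is the read-weighted bin average, scaled from 0 (unstable) to 1 (stable). Only peptides with >10 reads are reported; cells were grown at 30 °C in SC-His with glucose.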
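Further: PSI is a weighted mean of sequencing reads over stability bins, variants kept only with over 10 reads, mCherry proximal and sfGFP distal, peptide attached via GGGS linker.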

For CGLVGVALSEGV, which protein stability index is on record?
The protein stability index was 0.65 ± 0.086.

For CGRACWTGEDDV, which protein stability index is on record?
The protein stability index was 0.68 ± 0.037.

For CGRGCTRGVNLG, which protein stability index is on record?
Its protein stability index is 0.689 ± 0.069.

Which protein stability index does the source give for CGSWAGRAWPGR here?
Its protein stability index is 0.755 ± 0.014.

CGVGWSWTWSGW was tested. Which protein stability index did it give?
Its protein stability index is 0.698 ± 0.078.

CGVYPQLSGGFG was tested. Which protein stability index did it give?
Its protein stability index is 0.687 ± 0.018.

With CGWTSPSLVPTC as the sequence, how does the protein stability index read?
The protein stability index was 0.791 ± 0.045.

CGYAAGGELLQD was tested. Which protein stability index did it give?
The protein stability index was 0.705 ± 0.012.

CHGCSGFSYAPS was tested. Which protein stability index did it give?
The protein stability index was 0.669 ± 0.039.

How did the protein stability index turn out when CIALLTPPCIIF was run?
Its protein stability index is 0.72 ± 0.065.

CIDCGRKDIARL was tested. Which protein stability index did it give?
The protein stability index was 0.785 ± 0.066.

How did the protein stability index turn out when CIPHVVPYSTGK was run?
Its protein stability index is 0.697 ± 0.014.

CITLLDILFRPS was tested. Which protein stability index did it give?
The protein stability index was 0.684 ± 0.019.

How did the protein stability index turn out when CKKRSRCGNTIM was run?
Its protein stability index is 0.755 ± 0.15.

With CKMGNQNIRLYV as the sequence, how does the protein stability index read?
Its protein stability index is 0.599 ± 0.033.

CKPAGEGPTASM was tested. Which protein stability index did it give?
The protein stability index was 0.678 ± 0.037.

CKVRSYDDFVLV was tested. Which protein stability index did it give?
The protein stability index was 0.6231 ± 0.002.

CLAGLGPADFGM was tested. Which protein stability index did it give?
Its protein stability index is 0.674 ± 0.057.

For CLATVFWHHVKF, which protein stability index is on record?
The protein stability index was 0.63 ± 0.058.

How did the protein stability index turn out when CLAVPFSFRLVW was run?
The protein stability index was 0.613 ± 0.041.

With CLHSKPSPESRT as the sequence, how does the protein stability index read?
The protein stability index was 0.687 ± 0.041.

CLISDLRFVNKR was tested. Which protein stability index did it give?
The protein stability index was 0.69 ± 0.056.

For CLLIRAQRNALW, which protein stability index is on record?
Its protein stability index is 0.64 ± 0.036.

For CLPCSGWLSWPH, which protein stability index is on record?
Its protein stability index is 0.664 ± 0.0069.

Which protein stability index does the source give for CLPLSPPVPHLR here?
Its protein stability index is 0.738 ± 0.12.

For CLPPSSIVPFIS, which protein stability index is on record?
The protein stability index was 0.59 ± 0.024.

With CLREYGGRGGWE as the sequence, how does the protein stability index read?
Its protein stability index is 0.706 ± 0.028.

Which protein stability index does the source give for CLRGFWSQFMRF here?
The protein stability index was 0.678 ± 0.032.

For CLRKKYSNTLLM, which protein stability index is on record?
The protein stability index was 0.647 ± 0.028.

With CLRTVGIAQSSG as the sequence, how does the protein stability index read?
Its protein stability index is 0.7019 ± 0.00094.

How did the protein stability index turn out when CLSAPFRSLLFL was run?
Its protein stability index is 0.585 ± 0.051.

CLSATTFSYVFA was tested. Which protein stability index did it give?
The protein stability index was 0.576 ± 0.0061.

CLTRFFQPYGSL was tested. Which protein stability index did it give?
Its protein stability index is 0.667 ± 0.059.

For CLTYPSFSLSSS, which protein stability index is on record?
Its protein stability index is 0.635 ± 0.063.

For CMRVGGWFLFSL, which protein stability index is on record?
Its protein stability index is 0.661 ± 0.051.

For CNFGLHSCALLY, which protein stability index is on record?
The protein stability index was 0.723 ± 0.033.

Which protein stability index does the source give for CNVGAIVGLVWV here?
Its protein stability index is 0.6002 ± 0.0019.

With CPGNGVFYSGRG as the sequence, how does the protein stability index read?
Its protein stability index is 0.679 ± 0.014.

Which protein stability index does the source give for CPLEYSEVVLVD here?
The protein stability index was 0.6268 ± 0.0022.

With CPLSPLPSSAAP as the sequence, how does the protein stability index read?
Its protein stability index is 0.681 ± 0.042.

Which protein stability index does the source give for CPPGFPRPSSPH here?
The protein stability index was 0.689 ± 0.028.

For CPPTPSPSTLPT, which protein stability index is on record?
Its protein stability index is 0.663 ± 0.016.

How did the protein stability index turn out when CPRPHVLPLAYF was run?
Its protein stability index is 0.646 ± 0.014.

For CPRSWWELLAID, which protein stability index is on record?
Its protein stability index is 0.739 ± 0.045.

For CPSIVCSPTDPM, which protein stability index is on record?
Its protein stability index is 0.679 ± 0.061.

With CPSRPPALPPPE as the sequence, how does the protein stability index read?
The protein stability index was 0.66835 ± 0.00049.

Which protein stability index does the source give for CPTLTCPRLPSP here?
The protein stability index was 0.684 ± 0.11.

CPVSWRPLCTVS was tested. Which protein stability index did it give?
The protein stability index was 0.6177 ± 0.0054.

With CQHPLRPRCLND as the sequence, how does the protein stability index read?
The protein stability index was 0.6724 ± 0.0048.

CRGAGGRTVING was tested. Which protein stability index did it give?
The protein stability index was 0.665 ± 0.043.

How did the protein stability index turn out when CRGRWVAWSMGI was run?
Its protein stability index is 0.7221 ± 0.0019.

For CRMEARHSVLKS, which protein stability index is on record?
Its protein stability index is 0.554 ± 0.0087.

For CRPVPGGLFVVS, which protein stability index is on record?
The protein stability index was 0.669 ± 0.064.

For CRRRWSAPGGSR, which protein stability index is on record?
Its protein stability index is 0.7176 ± 0.0047.

With CRSGFEPSPHLG as the sequence, how does the protein stability index read?
The protein stability index was 0.657 ± 0.029.

How did the protein stability index turn out when CSAGLSDRGFCE was run?
The protein stability index was 0.663 ± 0.023.

CSCSQYFHLPNV was tested. Which protein stability index did it give?
The protein stability index was 0.687 ± 0.017.

How did the protein stability index turn out when CSGCSGSCSVLA was run?
The protein stability index was 0.646 ± 0.049.

For CSLRDRCAFSFG, which protein stability index is on record?
The protein stability index was 0.6982 ± 0.0052.

With CSLSLPAFSAPS as the sequence, how does the protein stability index read?
Its protein stability index is 0.669 ± 0.04.

For CSLVIRRRREVG, which protein stability index is on record?
Its protein stability index is 0.659 ± 0.044.

How did the protein stability index turn out when CSPGVSGVSSVD was run?
Its protein stability index is 0.685 ± 0.026.

How did the protein stability index turn out when CSPMFTRQPLPL was run?
Its protein stability index is 0.645 ± 0.027.

With CSRDNRTSRSIL as the sequence, how does the protein stability index read?
The protein stability index was 0.681 ± 0.032.

With CSSRDGLLWRFR as the sequence, how does the protein stability index read?
Its protein stability index is 0.731 ± 0.088.

How did the protein stability index turn out when CSSTGVPGRRHE was run?
Its protein stability index is 0.709 ± 0.013.

CSTFFVRSLSFI was tested. Which protein stability index did it give?
The protein stability index was 0.63 ± 0.034.

For CSVFFFMGFLFA, which protein stability index is on record?
The protein stability index was 0.511 ± 0.13.

Which protein stability index does the source give for CSVRGDVANYAF here?
Its protein stability index is 0.6457 ± 0.0028.

CSVSACTVSLCC was tested. Which protein stability index did it give?
The protein stability index was 0.5849 ± 0.0017.

How did the protein stability index turn out when CTCSGELSLRGV was run?
Its protein stability index is 0.684 ± 0.011.

For CTLSFRVAFFSL, which protein stability index is on record?
Its protein stability index is 0.5848 ± 0.00071.

How did the protein stability index turn out when CTPSSLRPLMPS was run?
The protein stability index was 0.655 ± 0.073.

With CTRCKRDDYNIE as the sequence, how does the protein stability index read?
The protein stability index was 0.6803 ± 0.006.

CTRRACDVRAVL was tested. Which protein stability index did it give?
The protein stability index was 0.699 ± 0.025.

With CVAAASPFRLLY as the sequence, how does the protein stability index read?
The protein stability index was 0.654 ± 0.04.

How did the protein stability index turn out when CVAGHPPASPPP was run?
The protein stability index was 0.712 ± 0.059.

Which protein stability index does the source give for CVFGSHCRVLVV here?
The protein stability index was 0.556 ± 0.028.

Which protein stability index does the source give for CVGSLGVVVGWG here?
The protein stability index was 0.724 ± 0.013.

For CVGSVRYRIRGS, which protein stability index is on record?
Its protein stability index is 0.63 ± 0.06.

For CVLARVWMRGGR, which protein stability index is on record?
The protein stability index was 0.636 ± 0.023.

CVLVVGVPAGGG was tested. Which protein stability index did it give?
Its protein stability index is 0.611 ± 0.028.

Which protein stability index does the source give for CVLYQLPPAYSF here?
The protein stability index was 0.643 ± 0.029.

For CVQCRRPSEWLV, which protein stability index is on record?
Its protein stability index is 0.698 ± 0.033.

With CVRARQLTLCIP as the sequence, how does the protein stability index read?
The protein stability index was 0.5505 ± 0.0036.

Which protein stability index does the source give for CVSWFWVGYWWG here?
Its protein stability index is 0.516 ± 0.0086.

CVTGPIDKLRLL was tested. Which protein stability index did it give?
Its protein stability index is 0.5947 ± 0.0023.

Which protein stability index does the source give for CVVHLLIFGLCI here?
Its protein stability index is 0.5963 ± 0.0046.

For CVVVSCVCPFVV, which protein stability index is on record?
The protein stability index was 0.5739 ± 0.0036.

Which protein stability index does the source give for CVVYLDVRLPVT here?
The protein stability index was 0.58 ± 0.023.

For CVYGILPRPPDF, which protein stability index is on record?
Its protein stability index is 0.671 ± 0.035.

With CWVHGRWVSGAS as the sequence, how does the protein stability index read?
The protein stability index was 0.813 ± 0.051.

CYFLAMPLYFPL was tested. Which protein stability index did it give?
Its protein stability index is 0.622 ± 0.014.

For CYIGGEVEFVGW, which protein stability index is on record?
Its protein stability index is 0.727 ± 0.0094.

CYPIPEGWIGLM was tested. Which protein stability index did it give?
The protein stability index was 0.607 ± 0.045.

With DAAVQSGGRVAG as the sequence, how does the protein stability index read?
Its protein stability index is 0.481 ± 0.03.

DACRLLGGRRCG was tested. Which protein stability index did it give?
The protein stability index was 0.717 ± 0.07.

Which protein stability index does the source give for DAGGGKLFGNSK here?
The protein stability index was 0.663 ± 0.019.

Reference: the supplement of paper PMC10724198
